T1: inactive BoNT/G (BoNT/Gi) (Clostridium botulinum, UniProt Q60393 1-1297)
T1 sequence: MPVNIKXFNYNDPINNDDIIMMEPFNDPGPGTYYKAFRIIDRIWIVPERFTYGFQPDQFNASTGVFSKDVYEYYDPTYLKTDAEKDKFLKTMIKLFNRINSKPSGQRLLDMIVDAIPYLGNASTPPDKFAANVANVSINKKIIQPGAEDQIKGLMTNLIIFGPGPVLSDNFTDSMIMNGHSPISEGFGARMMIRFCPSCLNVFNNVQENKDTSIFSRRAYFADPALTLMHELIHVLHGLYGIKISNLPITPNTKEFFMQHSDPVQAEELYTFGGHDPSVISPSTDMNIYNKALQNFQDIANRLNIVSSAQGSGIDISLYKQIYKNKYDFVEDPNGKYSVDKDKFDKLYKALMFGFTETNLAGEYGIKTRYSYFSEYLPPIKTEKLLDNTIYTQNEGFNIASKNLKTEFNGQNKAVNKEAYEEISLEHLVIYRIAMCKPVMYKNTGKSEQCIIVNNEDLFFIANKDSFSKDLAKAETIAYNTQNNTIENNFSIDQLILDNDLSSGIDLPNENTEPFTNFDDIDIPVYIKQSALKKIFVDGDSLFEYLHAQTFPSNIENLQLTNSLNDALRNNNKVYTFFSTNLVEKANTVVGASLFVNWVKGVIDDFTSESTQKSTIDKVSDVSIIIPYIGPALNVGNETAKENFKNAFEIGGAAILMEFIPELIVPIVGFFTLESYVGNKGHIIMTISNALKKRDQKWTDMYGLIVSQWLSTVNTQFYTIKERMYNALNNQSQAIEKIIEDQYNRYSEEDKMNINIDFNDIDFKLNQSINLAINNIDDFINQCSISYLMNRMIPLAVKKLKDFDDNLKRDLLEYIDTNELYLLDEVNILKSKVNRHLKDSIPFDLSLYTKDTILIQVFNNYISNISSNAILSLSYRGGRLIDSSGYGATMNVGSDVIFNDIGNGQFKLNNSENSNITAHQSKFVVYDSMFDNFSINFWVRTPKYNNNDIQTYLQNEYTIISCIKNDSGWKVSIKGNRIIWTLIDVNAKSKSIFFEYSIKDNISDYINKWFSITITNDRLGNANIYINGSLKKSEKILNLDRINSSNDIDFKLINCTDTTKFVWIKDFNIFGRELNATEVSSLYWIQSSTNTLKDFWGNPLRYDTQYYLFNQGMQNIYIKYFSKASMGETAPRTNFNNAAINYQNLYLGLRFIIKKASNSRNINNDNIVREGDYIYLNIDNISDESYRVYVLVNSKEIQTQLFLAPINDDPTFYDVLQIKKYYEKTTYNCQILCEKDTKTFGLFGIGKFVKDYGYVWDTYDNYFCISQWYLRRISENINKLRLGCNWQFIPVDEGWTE

T2: active BoNT/G holotoxin (Clostridium botulinum, UniProt Q60393 2-1297)
T2 sequence: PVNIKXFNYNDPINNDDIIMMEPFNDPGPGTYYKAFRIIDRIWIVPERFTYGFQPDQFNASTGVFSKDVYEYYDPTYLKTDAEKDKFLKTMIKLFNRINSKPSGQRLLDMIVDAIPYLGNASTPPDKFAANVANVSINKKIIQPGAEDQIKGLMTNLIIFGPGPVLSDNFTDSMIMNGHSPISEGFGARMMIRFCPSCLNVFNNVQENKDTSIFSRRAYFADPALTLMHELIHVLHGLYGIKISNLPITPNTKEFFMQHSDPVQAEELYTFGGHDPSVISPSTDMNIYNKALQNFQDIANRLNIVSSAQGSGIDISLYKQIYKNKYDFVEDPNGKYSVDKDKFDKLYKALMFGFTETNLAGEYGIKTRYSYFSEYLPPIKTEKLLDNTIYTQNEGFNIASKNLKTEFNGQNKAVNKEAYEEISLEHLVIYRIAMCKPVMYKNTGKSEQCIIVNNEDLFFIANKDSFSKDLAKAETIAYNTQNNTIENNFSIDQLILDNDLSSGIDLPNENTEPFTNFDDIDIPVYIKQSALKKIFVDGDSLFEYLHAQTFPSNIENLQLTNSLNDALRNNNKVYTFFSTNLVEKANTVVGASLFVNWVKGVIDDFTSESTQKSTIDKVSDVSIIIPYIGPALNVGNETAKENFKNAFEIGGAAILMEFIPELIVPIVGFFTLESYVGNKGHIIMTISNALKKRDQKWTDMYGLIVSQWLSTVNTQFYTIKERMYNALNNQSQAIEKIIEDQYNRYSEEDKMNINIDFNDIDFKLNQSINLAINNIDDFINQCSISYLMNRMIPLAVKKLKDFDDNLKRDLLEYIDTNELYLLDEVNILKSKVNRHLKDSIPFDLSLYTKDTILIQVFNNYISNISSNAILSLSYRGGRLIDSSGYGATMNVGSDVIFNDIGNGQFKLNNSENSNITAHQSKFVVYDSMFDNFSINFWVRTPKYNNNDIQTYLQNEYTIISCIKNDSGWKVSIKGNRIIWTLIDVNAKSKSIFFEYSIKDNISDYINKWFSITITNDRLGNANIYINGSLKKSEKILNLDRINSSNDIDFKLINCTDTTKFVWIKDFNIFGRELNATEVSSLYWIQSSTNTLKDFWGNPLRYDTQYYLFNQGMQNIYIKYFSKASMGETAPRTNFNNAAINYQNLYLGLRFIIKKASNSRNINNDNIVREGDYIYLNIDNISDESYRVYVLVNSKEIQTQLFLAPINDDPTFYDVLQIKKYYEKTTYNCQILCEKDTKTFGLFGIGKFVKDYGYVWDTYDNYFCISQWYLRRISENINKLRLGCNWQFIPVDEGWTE

B1: Hu6G10 scFv (scFv, V domains shown)
VH: QVQLVQSGAEVKKPGATVKISCKASGYSFTGYFMHWVRQAPGKGLEWIGRINPYNGDIIYNQNFKDRATLTVDKSTSTAYMELSSLRSEDTAVYYCASLFGLYYFDYWGQGTTLTVSS
VL: DVVMTQSPSSVSASVGDRVTITCRASQRISNHLNWYQQKPGKAPKRLIYAASSLESGVPSRFSGSGSGTEFTLTISSLQPEDFATYFCLQHNSYPYTFGQGTKVEIKR
B2: Hu6G11.1 scFv (scFv, V domains shown)
VH: QVQLVQSGAEVAKPGASVKMSCKASGYTFTSYWMHWVRQAPGQGLEWIGYINPSTGYTEYNQKFKDRATLTADKSKSTAYMELSSLRSEDTAVYYCARGYFSFAYWGQGTLVTVSS
VL: DIVMTQSPSSLSASVRDRVTITCQASHDIKNFLNWFQQKPGKAPKLLVYDASYLQVGVPSRFSASGYGTEFTLTISSLQPEDFATYYCQQANSFPRTFGQGTKVEIKR
B3: Hu6G11.2 scFv (scFv, V domains shown)
VH: QVQLVQSGAEVAKPGASVKMSCKASGYTFTSYWMHWVRQAPGQGLEWIGYINPSTGYTEYNQKFKDRATLTADKSKSTAYMELSSLRSEDTAVYYCARGYFSFAYWGQGTLVTVSS
VL: DIVMTQSPSSLSASVRDRVTITCQASHDIKNFLNWFQQKPGKAPKLLVYDASHLQVGVPSRFSASGYGTEFTLTISSLQPEDFATYYCQQANSFPRTFGQGTKVEIKR
B4: Hu6G9.1 IgG (antibody, V domains shown)
VH: QVQLVQSGAEVKKPGASVKMSCKASGYTFTSYWMHWVRQAPGQGLEWVGYINPSTGYTEYNQKFKDRATLTADKSTSTAYMELRSLRSDDTAVYYCARGGNYVDYWGQGTTLTVSS
VL: DIQMTQSPSTLSASVGERVTITCRASHGISSWLAWYQQKPGKAPKRLIYAVSTLQTGVPSRFSDSGSGTDLTLTINSLQPEDFATYYCQDLNSYPLSFGGGTKVEIKR
B5: hu6G6 IgG (antibody, V domains shown)
VH: QVQLVQSGAEVKKPGASVKLSCKASGFNIKDTYMHWVRQAPGQGLEWIGRIDPANGNTKYDPKFQGRATITADTSINTAYLELSRLRSDDTAVYYCASGPNYYGTTWFAYWGQGTTVTVSS
VL: EIVLTQSPSTLSASVGDRVTITCRASHGISNYLAWYQQKPGRAPKLLIYKASTLHIGVPSRFSGSGSGTEFALTISSLQPDDFSTYYCQQYNSYLPHTFGQGTRLEIKR
B6: Hu6G6.2 IgG (antibody, V domains shown)
VH: QVQLVQSGAEVKKPGASVKLSCKASGFNIKDTYMHWVRQAPGQGLEWIGRIDPENGNTKYDPKFQGRATITAYKSINRAYLELSRLRSDDTAVYYCASGPNYYGTTWFAYWGQGTTVTVSS
VL: EIVLTQSPSTLSASVGDRVTITCRASHGISNYLAWYQQKPGRAPKLLIYKASTLHIGVPSRFSGSGSGTEFALTISSLQPDDFSTYYCQQYNSYLPHTFGQGTRLEIKR
B7: 6G9 IgG (antibody, V domains shown)
VH: EVQLQQSGDDLVKPGASVKMSCKASGYTFTSYWMHWVKQRPGQGLEWIGYINPSTGYTEYNQKFKDKATLTADKSSSTAYMQLSSLTSEDSAVYYCARGGNYVDYWGQGTTLTVSS
VL: EIVLTQSPAIMSASPGEKVTISCSASSSVSYMYWYQQKPGSSPKPWIYRTSNLASGVPARFSGSGSGTSYSLTISSMEAEDAATYYCQQWSSNPYTFGGGTKLEIKR
B8: Hu6G7.1 IgG (antibody, V domains shown)
VH: QVQLVQSGAEVKKPGASVKVSCKASDYSFTDYNIYWVRQTPGQGLEWIGYIDPYNGGTSYNQKFKGRATLTVDKSISTAYMELSRLRSDDTAVYYCALYGYDPDYIDYWGQGTTLTVSS
VL: DIVLTQSPASMAVSPGQRVTITCSASSSVSYLHWFQQKPGQSPKLWIYSTSNLASGVPARFSGSGSGTDYTLTINPMEAEDTATYYCQQRSSYPYTFGQGTKLEIKR
B9: 6G7.1 IgG (antibody, V domains shown)
VH: DVQLQESGPELVKPGASVKVSCKASDYSFTDYNIYWVKQSHGKSLEWIGYIDPYNGGTSYNQKFKGKATLTVDKSSSTAFMYLNSLTSEDSAVYYCALYGYDPDYIDYWGQGTTLTVSS
VL: QIVLTQSPAIMSASPGEKVTITCSASSSVSYLHWFQQKPGTSPKLWIYSTSNLASGVPARFSGSGSGTSYSLTISRMEAEDAATYYCQQRSSYPYTFGGGTKLEIKA
B10: 6G10 IgG (antibody, V domains shown)
VH: EVQLQQSGPELVKPGASVKISCKASGYSFTGYFMHWVKQSHVKSLEWIGRINPYNGDIIYNQNFKDKASLTVDKSSSTAYMELHSLTSEDSAVYYCASLFGLYYFDYWGQGTTLTVSS
VL: EIVLTQSPAIMSASPGEKVTMTCSASSSVSYMHWYQQKSGTSPKRWIYDTSKLASGVPARFSGSGSGTSYSLTISSMEAEDAATYYCQQWSSNPLTFGAGTKLELKR
B11: Hu6G11.1 IgG (antibody, V domains shown)
VH: QVQLVQSGAEVAKPGASVKMSCKASGYTFTSYWMHWVRQAPGQGLEWIGYINPSTGYTEYNQKFKDRATLTADKSKSTAYMELSSLRSEDTAVYYCARGYFSFAYWGQGTLVTVSS
VL: DIVMTQSPSSLSASVRDRVTITCQASHDIKNFLNWFQQKPGKAPKLLVYDASYLQVGVPSRFSASGYGTEFTLTISSLQPEDFATYYCQQANSFPRTFGQGTKVEIKR
B12: hu6G11 IgG (antibody, V domains shown)
VH: QVQLVQSGAEVAKPGASVKMSCKASGYTFTSYWMHWVRQAPGQGLEWIGYINPSTGYTEYNQKFKDRATLTADKSTSTAYMELSSLRSEDTAVYYCARGYFSFAYWGQGTLVTVSS
VL: DIVMTQSPSSLSASVRDRVTITCQASHDIKNFLNWFQQKPGKAPKLLVYDASNLQVGVPSRFSASGYGTEFTLTISSLQPEDFATYYCQQANSFPRTFGQGTKVEIKR
B13: Hu6G11.2 IgG (antibody, V domains shown)
VH: QVQLVQSGAEVAKPGASVKMSCKASGYTFTSYWMHWVRQAPGQGLEWIGYINPSTGYTEYNQKFKDRATLTADKSKSTAYMELSSLRSEDTAVYYCARGYFSFAYWGQGTLVTVSS
VL: DIVMTQSPSSLSASVRDRVTITCQASHDIKNFLNWFQQKPGKAPKLLVYDASHLQVGVPSRFSASGYGTEFTLTISSLQPEDFATYYCQQANSFPRTFGQGTKVEIKR

For one experiment, the target named is T1, inactive BoNT/G (BoNT/Gi). The experiment can be described thus: FACS, scFv on yeast.
Take B1: the dissociation constant Kd turned out to be 0.52 nM.

On to B2, for which the Kd stood at 0.32 nM.

The molecule B3 displayed a Kd of 0.56 nM.

The target of the next experiment is T2, active BoNT/G holotoxin. The experiment can be described thus: KinExA, IgG.
Regarding B4, the affinity, expressed as Kd, was 0.0275 nM.

B5: binding was characterised by a dissociation constant (Kd) of 8.37 nM.

In turn, B6 showed a Kd of 0.0422 nM.

Regarding B7, the Kd was 1.59 nM.

In the case of B8, binding was put at a Kd of 1.19 nM.

Regarding B9, the Kd worked out at 0.0266 nM.

The molecule B10 came in with a Kd of 0.33 nM.

Molecule B11 displayed a Kd of 0.101 nM.

Consider B12, for which the Kd was 0.531 nM.

In the case of B13, the dissociation constant (Kd) was 0.048 nM.

The values are drawn from patent US20260116958A1 (University of California, published 2026).
